Test results reported in PMC2800831.

Tests used:
[1] = molecular target: Recombinant mouse fibulin-5 (mouse) (UniProt Q9WVH9); test: SPR
[2] = molecular target: Recombinant mouse fibulin-2 (mouse) (UniProt P37889); test: SPR
UniProt P37889, sequence (P37889 27-1221): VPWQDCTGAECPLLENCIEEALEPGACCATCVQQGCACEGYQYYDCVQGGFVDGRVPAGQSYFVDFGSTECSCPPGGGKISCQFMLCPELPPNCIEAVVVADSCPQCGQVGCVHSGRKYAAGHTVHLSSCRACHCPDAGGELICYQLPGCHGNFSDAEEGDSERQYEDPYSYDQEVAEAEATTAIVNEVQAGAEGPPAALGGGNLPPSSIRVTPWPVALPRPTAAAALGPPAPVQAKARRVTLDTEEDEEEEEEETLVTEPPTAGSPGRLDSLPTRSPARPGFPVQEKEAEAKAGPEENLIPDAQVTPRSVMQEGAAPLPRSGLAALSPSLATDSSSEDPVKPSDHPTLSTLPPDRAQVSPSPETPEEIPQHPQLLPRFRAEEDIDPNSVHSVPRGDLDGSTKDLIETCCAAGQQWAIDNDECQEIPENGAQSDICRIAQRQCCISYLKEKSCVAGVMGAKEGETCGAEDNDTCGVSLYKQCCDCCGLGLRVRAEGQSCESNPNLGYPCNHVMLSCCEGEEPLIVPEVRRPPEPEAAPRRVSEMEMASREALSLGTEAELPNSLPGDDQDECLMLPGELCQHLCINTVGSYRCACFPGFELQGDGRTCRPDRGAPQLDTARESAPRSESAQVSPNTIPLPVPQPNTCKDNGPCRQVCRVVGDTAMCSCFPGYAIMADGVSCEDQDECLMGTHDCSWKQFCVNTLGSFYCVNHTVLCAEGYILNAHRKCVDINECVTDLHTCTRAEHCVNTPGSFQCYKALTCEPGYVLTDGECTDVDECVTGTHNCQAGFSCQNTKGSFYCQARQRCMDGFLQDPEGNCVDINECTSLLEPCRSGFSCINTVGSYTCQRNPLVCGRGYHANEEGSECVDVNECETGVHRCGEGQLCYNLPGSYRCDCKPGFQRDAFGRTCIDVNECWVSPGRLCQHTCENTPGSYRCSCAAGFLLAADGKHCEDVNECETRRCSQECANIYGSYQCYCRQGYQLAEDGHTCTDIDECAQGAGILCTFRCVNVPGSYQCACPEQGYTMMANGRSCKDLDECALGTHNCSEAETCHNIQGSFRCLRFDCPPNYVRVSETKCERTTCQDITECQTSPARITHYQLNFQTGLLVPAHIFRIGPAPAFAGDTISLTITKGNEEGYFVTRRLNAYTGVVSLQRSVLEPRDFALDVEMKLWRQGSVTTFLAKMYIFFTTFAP

UniProt Q9WVH9, sequence (Q9WVH9 24-448): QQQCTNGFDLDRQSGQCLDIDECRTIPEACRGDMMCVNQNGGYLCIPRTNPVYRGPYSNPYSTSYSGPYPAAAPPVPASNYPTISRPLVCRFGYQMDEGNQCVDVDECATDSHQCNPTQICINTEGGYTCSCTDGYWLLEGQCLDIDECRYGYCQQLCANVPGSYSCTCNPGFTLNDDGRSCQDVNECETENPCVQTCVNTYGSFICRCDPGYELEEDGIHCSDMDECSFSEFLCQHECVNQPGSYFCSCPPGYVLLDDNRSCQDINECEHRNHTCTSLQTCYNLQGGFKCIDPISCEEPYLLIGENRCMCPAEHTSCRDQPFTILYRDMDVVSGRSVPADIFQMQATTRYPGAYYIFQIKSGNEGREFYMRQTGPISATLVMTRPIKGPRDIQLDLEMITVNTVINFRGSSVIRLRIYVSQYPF

Row | Substance | Kd [1] [nM] | Kd [2] [nM]
1 | Recombinant mouse fibulin-2 (from UniProt P37889 27-1221) (natural protein) | 100 | 
2 | Recombinant mouse fibulin-5 (from UniProt Q9WVH9 24-448) (natural protein) |  | 1650
